Data reported in patent publication US8840891 (RSR, dated 2014).
Like-named read-outs stand apart in the source and are kept apart here. One block for each substance: values may come before it.

Legend:
[1] = molecular target: TSHR coated on ELISA plate wells (RSR Ltd) (human) (UniProt P16473); test: ELISA on TSHR-coated wells, TSH-biotin binding with HBD pool (no competitor)
[2] = molecular target: TSHR coated onto tubes (TSHR coated tubes) (human) (UniProt P16473); test: TSHR coated tubes, in the presence of HBD pool (Table 5)
[3] = molecular target: TSHR coated onto tubes (TSHR coated tubes) (human) (UniProt P16473); test: TSHR coated tubes
[4] = molecular target: TSHR coated onto tubes (TSHR coated tubes) (human) (UniProt P16473); test: TSHR coated tubes, in the presence of HBD pool (Tables 4a, 4b)
[5] = molecular target: TSHR coated onto tubes (TSHR coated tubes) (human) (UniProt P16473); test: TSHR coated tubes, in presence of HBD pool
[6] = molecular target: human TSHR, wild type, expressed on CHO cells (human) (UniProt P16473); test: cell-based or functional assay
[7] = molecular target: human TSHR with activating mutation A623I, on CHO cells (human) (UniProt P16473); test: cell-based or functional assay
[8] = molecular target: human TSHR, wild type, expressed on CHO cells (human) (UniProt P16473); test: cell-based or functional assay; remark: listed apart in the source
[9] = molecular target: TSHR coated on ELISA plate wells (RSR Ltd) (human) (UniProt P16473); test: ELISA on TSHR-coated wells, inhibition of TSH-biotin binding
[10] = molecular target: TSHR coated on ELISA plate wells (RSR Ltd) (human) (UniProt P16473); test: ELISA on TSHR-coated wells, inhibition of 5C9 IgG-biotin binding
[11] = molecular target: TSHR with Asp160 mutated to Lysine (human) (UniProt P16473); test: cell-based or functional assay
[12] = molecular target: wild type human TSHR (human) (UniProt P16473); test: cell-based or functional assay

Substance: TSH-biotin (ligand)
Abs 450 nm [1]: 2.14 Abs 450 nm

Substance: 125I-labelled TSH (ligand)
% of labelled protein bound [2]: 15%
average % binding of labelled tracer [3]: 14%
% of labelled protein bound [4]: 12%
% binding of labelled tracer [5]: 12%

Substance: M22 IgG, human monoclonal thyroid stimulating autoantibody (hMAb TSHR1)
% inhibition [9]: 15%
% inhibition [10]: 28%

Substance: M22 (antibody)
Mutated/wild type (%); M22 only [11]: 85%
cyclic AMP; M22 3 ng/mL only (fmol/cell well) [11]: 14300
cyclic AMP; M22 3 ng/mL only (repeat determination) (fmol/cell well) [11]: 18900
cyclic AMP; M22 3 ng/mL only (fmol/cell well) [12]: 16800
cyclic AMP; M22 3 ng/mL only (repeat determination) (fmol/cell well) [12]: 16700

The next lines start with the values.

% of labelled protein bound [2]: 24%
average % binding of labelled tracer [3]: 21%
% of labelled protein bound [4]: 20%
% binding of labelled tracer [5]: 17%
Substance: M22 IgG (human monoclonal thyroid stimulating autoantibody, hMAb TSHR1)

% inhibition of basal cyclic AMP production; Exp 3; 9D33 IgG 0.001 µg/mL [6]: 12%
cyclic AMP; Exp 1; 9D33 1 µg/mL + TSH 3 ng/mL [6]: 28.7 pmol/mL
cyclic AMP; Exp 1; 9D33 10 µg/mL + TSH 3 ng/mL [6]: 23.8 pmol/mL
cyclic AMP; Exp 1; 9D33 10 µg/mL only [6]: 2.9 pmol/mL
cyclic AMP; Exp 2; 9D33 1 µg/mL + TSH 3 ng/mL [6]: 19 pmol/mL
cyclic AMP; Exp 2; 9D33 10 µg/mL + TSH 3 ng/mL [6]: 9.5 pmol/mL
cyclic AMP; Exp 2; 9D33 10 µg/mL only [6]: 1.6 pmol/mL
cyclic AMP; Exp 3; 9D33 0.01 µg/mL + TSH 3 ng/mL [6]: 47.1 pmol/mL
cyclic AMP; Exp 3; 9D33 0.1 µg/mL + TSH 3 ng/mL [6]: 35.1 pmol/mL
cyclic AMP; Exp 3; 9D33 1 µg/mL + TSH 3 ng/mL [6]: 27.8 pmol/mL
cyclic AMP; Exp 3; 9D33 10 µg/mL + TSH 3 ng/mL [6]: 13.5 pmol/mL
cyclic AMP; Exp 3; 9D33 100 µg/mL + TSH 3 ng/mL [6]: 10.5 pmol/mL
cyclic AMP; Exp 3; 9D33 100 µg/mL only [6]: 1.14 pmol/mL
cyclic AMP; Exp 4; 9D33 0.1 µg/mL + TSH 0.3 ng/mL [6]: 20.2 pmol/mL
cyclic AMP; Exp 4; 9D33 1 µg/mL + TSH 0.3 ng/mL [6]: 9.01 pmol/mL
cyclic AMP; Exp 4; 9D33 10 µg/mL + TSH 0.3 ng/mL [6]: 4.23 pmol/mL
cyclic AMP; Exp 4; 9D33 100 µg/mL + TSH 0.3 ng/mL [6]: 3.53 pmol/mL
cyclic AMP; Exp 4; 9D33 100 µg/mL only [6]: 0.99 pmol/mL
cyclic AMP; Exp 5; 9D33 0.1 µg/mL + TSH 0.3 ng/mL [6]: 14.7 pmol/mL
cyclic AMP; Exp 5; 9D33 1 µg/mL + TSH 0.3 ng/mL [6]: 6.38 pmol/mL
cyclic AMP; Exp 5; 9D33 5 µg/mL + TSH 0.3 ng/mL [6]: 3.71 pmol/mL
cyclic AMP; Exp 5; 9D33 10 µg/mL + TSH 0.3 ng/mL [6]: 3.57 pmol/mL
cyclic AMP; Exp 5; 9D33 10 µg/mL only [6]: 2.07 pmol/mL
basal cyclic AMP (buffer only 36.89); 9D33 IgG 0.001 µg/mL [7]: 29.6 pmol/mL
basal cyclic AMP (buffer only 36.89); 9D33 IgG 0.01 µg/mL [7]: 27.6 pmol/mL
basal cyclic AMP (buffer only 36.89); 9D33 IgG 0.1 µg/mL [7]: 31.8 pmol/mL
basal cyclic AMP (buffer only 36.89); 9D33 IgG 1 µg/mL [7]: 40.1 pmol/mL
cyclic AMP; Exp 1; 9D33 0.01 µg/mL + M22 3 ng/mL [8]: 47.5 pmol/mL
cyclic AMP; Exp 1; 9D33 0.1 µg/mL + M22 3 ng/mL [8]: 27.6 pmol/mL
cyclic AMP; Exp 1; 9D33 1 µg/mL + M22 3 ng/mL [8]: 5.25 pmol/mL
cyclic AMP; Exp 1; 9D33 10 µg/mL + M22 3 ng/mL [8]: 2.5 pmol/mL
cyclic AMP; Exp 1; 9D33 100 µg/mL + M22 3 ng/mL [8]: 2.13 pmol/mL
cyclic AMP; Exp 1; 9D33 100 µg/mL only [8]: 1.51 pmol/mL
cyclic AMP; Exp 2; 9D33 0.001 µg/mL + M22 3 ng/mL [8]: 79.1 pmol/mL
cyclic AMP; Exp 2; 9D33 0.01 µg/mL + M22 3 ng/mL [8]: 60.2 pmol/mL
cyclic AMP; Exp 2; 9D33 0.1 µg/mL + M22 3 ng/mL [8]: 38.7 pmol/mL
cyclic AMP; Exp 2; 9D33 1 µg/mL + M22 3 ng/mL [8]: 6.03 pmol/mL
cyclic AMP; Exp 2; 9D33 10 µg/mL + M22 3 ng/mL [8]: 0.67 pmol/mL
cyclic AMP; Exp 2; 9D33 100 µg/mL + M22 3 ng/mL [8]: 1.42 pmol/mL
cyclic AMP; Exp 2; 9D33 100 µg/mL only [8]: 1.76 pmol/mL
cyclic AMP; Exp 3; 9D33 0.001 µg/mL + M22 0.3 ng/mL [8]: 12.8 pmol/mL
cyclic AMP; Exp 3; 9D33 0.01 µg/mL + M22 0.3 ng/mL [8]: 15.2 pmol/mL
cyclic AMP; Exp 3; 9D33 0.1 µg/mL + M22 0.3 ng/mL [8]: 5.38 pmol/mL
cyclic AMP; Exp 3; 9D33 1 µg/mL + M22 0.3 ng/mL [8]: 0.83 pmol/mL
cyclic AMP; Exp 3; 9D33 10 µg/mL + M22 0.3 ng/mL [8]: 0.97 pmol/mL
cyclic AMP; Exp 3; 9D33 100 µg/mL + M22 0.3 ng/mL [8]: 1.03 pmol/mL
cyclic AMP; Exp 3; 9D33 100 µg/mL only [8]: 0.88 pmol/mL
cyclic AMP; Exp 4; 9D33 0.001 µg/mL + M22 0.3 ng/mL [8]: 43.2 pmol/mL
cyclic AMP; Exp 4; 9D33 0.01 µg/mL + M22 0.3 ng/mL [8]: 38.9 pmol/mL
cyclic AMP; Exp 4; 9D33 0.1 µg/mL + M22 0.3 ng/mL [8]: 27.6 pmol/mL
cyclic AMP; Exp 4; 9D33 1 µg/mL + M22 0.3 ng/mL [8]: 2.66 pmol/mL
cyclic AMP; Exp 4; 9D33 10 µg/mL + M22 0.3 ng/mL [8]: 1.25 pmol/mL
cyclic AMP; Exp 4; 9D33 100 µg/mL + M22 0.3 ng/mL [8]: 2 pmol/mL
cyclic AMP; Exp 4; 9D33 100 µg/mL only [8]: 2.38 pmol/mL
Substance: 9D33 IgG, mouse monoclonal antibody to the TSHR with blocking activity
